The values that follow come from patent US20220202704A1, “PHARMACEUTICAL PARENTERAL COMPOSITION OF DUAL GLP1/2 AGONIST” (Zealand Pharma A/S, priority 2019, published 2022).

*1 amine or outer side, *2 acyl side, *3 side chain or, on linkers, in order; H or OH if unused. Where no end group is shown, it is not given here. Side-chain parts run from the residue outwards. [ ]: non-standard residue; d: D form. The star is where a group is joined. C18 diacid = O=C(O)CCCCCCCCCCCCCCCCC(=O)*; γGlu = O=C(O)[C@H](CCC(=O)[*:2])N[*:1]; Aib = CC(C)(N)C(=O)O

This data set in a line: Physical stability via ThT, fibril formation (ASSAY IVc). It counts as physicochemical. Also on record: key to Aggregation (fibrillation, ThT): FD = Fibrillation Detected; FND = Fibrillation Not Detected. Particulars: for Aggregation (fibrillation, ThT): 40° C. 4 days. On the procedure:
Samples were prepared in a total volume of 0.5 mL API (herein e.g. CPD1) stock solutions were prepared by dissolving API in demineralised water at ambient temperature (typically 25° C.) to achieve 5 and 25 mg/mL API, respectively. 8 working solutions were prepared: 1) 40 mM phosphate pH 6 and 80 μM ThT; 2) 40 mM phosphate pH 6.5 and 80 μM ThT; 3) 40 mM phosphate pH 7 and 80 μM ThT; 4) 40 mM phosphate pH 8 and 80 μM ThT; 5) 40 mM phosphate pH 6, 540 mM mannitol and 80 μM ThT; 6) 40 mM phosphate pH 6.5, 540 mM mannitol and 80 μM ThT; 7) 40 mM phosphate pH 7, 540 mM mannitol and 80 μM ThT; and 8) 40 mM phosphate pH 8, 540 mM mannitol and 80 μM ThT.
200 μL of API stock was mixed with 250 μL working solution, pH was measured and adjusted to target, followed by adding demineralised water to a final volume of 500 μL. Samples were loaded in a 96-well black fluorescence plate (clear bottom) in triplicate 3×150 μL. Data were collected at fixed intervals of 10 min, each preceded by 300 s of automixing (agitation), over a period of 96 hours at 40° C. Physical stability, expressed as lag-time of fibril formation (in hours), was defined as the intersection between two linear regressions representing the initial stable phase and the growth phase.

On to “CPD1: any form of the compound comprising SEQ ID NO: 1 (CPD1OH or CPD1NH2 and any pharmaceutically acceptable salt thereof) (H-H[Aib]EGSFTSELATILDK([γGlu-C18 diacid])QAARDFIAWLIQHKITD; also: C-terminal acid or amide, both forms, salts)”, for which the “Aggregation (fibrillation, ThT)” value is given as “FD” (2 mg/mL CPD1, 20 mM phosphate pH 6, 270 mM mannitol); “FD” (2 mg/mL CPD1, 20 mM phosphate pH 6, no added tonicity agent); “FND” (2 mg/mL CPD1, 20 mM phosphate pH 6.5, 270 mM mannitol); “FND” (2 mg/mL CPD1, 20 mM phosphate pH 6.5, no added tonicity agent); “FND” (2 mg/mL CPD1, 20 mM phosphate pH 7, 270 mM mannitol); “FND” (2 mg/mL CPD1, 20 mM phosphate pH 7, no added tonicity agent). In addition, the “Aggregation (fibrillation, ThT)” value by setting is: (2 mg/mL CPD1, 20 mM phosphate pH 8, 270 mM mannitol) “FND”; (2 mg/mL CPD1, 20 mM phosphate pH 8, no added tonicity agent) “FND”; (10 mg/mL CPD1, 20 mM phosphate pH 6, 270 mM mannitol) “FD”; (10 mg/mL CPD1, 20 mM phosphate pH 6, no added tonicity agent) “FD”; (10 mg/mL CPD1, 20 mM phosphate pH 6.5, 270 mM mannitol) “FND”; (10 mg/mL CPD1, 20 mM phosphate pH 6.5, no added tonicity agent) “FND”. In addition, the “Aggregation (fibrillation, ThT)” value runs as follows: (10 mg/mL CPD1, 20 mM phosphate pH 7, 270 mM mannitol) “FND”; (10 mg/mL CPD1, 20 mM phosphate pH 7, no added tonicity agent) “FND”; (10 mg/mL CPD1, 20 mM phosphate pH 8, 270 mM mannitol) “FND”; (10 mg/mL CPD1, 20 mM phosphate pH 8, no added tonicity agent) “FND”. Moreover, the “Amyloid formation / fibrillation” value is given as “amyloid formation was observed” (2 and 10 mg/mL CPD1, pH 6); “no fibrillation was observed” (2 and 10 mg/mL CPD1, pH 7 or 8). Also, under “pH range 6-8, 40° C. 4 days”, the “Aggregation propensity, mannitol as tonicity agent compared to control (no tonicity agent)” value is “No difference”.
